Reference: US12351616B2, “Peptides and combination of peptides for use in immunotherapy against esophageal cancer and other cancers” (Immatics Biotechnologies GmbH, priority 2015, dated 2025)

Target: HLA-A*02:01 (Homo sapiens, UniProt P04439, D140Y/D185E/D98H/E176V/E277Q/G131W/G231S/I119V/I121R/I166T/I218V/L300P/L318F/N151K/N90K/P208A/P217A/Q86G/Q94H/R138H/R169H/T345S)
Experiment: MHC binding assay: UV-ligand exchange with β2m ELISA
Conditions: peptide exchange yield, binding to HLA-A*02:01
From the text: Candidate peptides for T cell based therapies according to the present invention were further tested for their MHC binding capacity (affinity). The individual peptide-MHC complexes were produced by UV-ligand exchange, where a UV-sensitive peptide is cleaved upon UV-irradiation, and exchanged with the peptide of interest as analyzed. Only peptide candidates that can effectively bind and stabilize the peptide-receptive MHC molecules prevent dissociation of the MHC complexes. To determine the yield of the exchange reaction, an ELISA was performed based on the detection of the light chain (β2m) of stabilized MHC complexes. The assay was performed as generally described in Rodenko et al. (Rodenko et al., 2006).
96 well MAXISorp plates (NUNC) were coated over night with 2 ug/ml streptavidin in PBS at room temperature, washed 4× and blocked for 1 h at 37° C. in 2% BSA containing blocking buffer. Refolded HLA-A*02:01/MLA-001 monomers served as standards, covering the range of 15-500 ng/ml. Peptide-MHC monomers of the UV-exchange reaction were diluted 100 fold in blocking buffer. Samples were incubated for 1 h at 37° C., washed four times, incubated with 2 ug/ml HRP conjugated anti-β2m for 1 h at 37° C., washed again and detected with TMB solution that is stopped with […]. Absorption was measured at 450 nm. Candidate peptides that show a high exchange yield (preferably higher than 50%, most preferred higher than 75%) are generally preferred for a generation and production of antibodies or fragments thereof, and/or T cell receptors or fragments thereof, as they show sufficient avidity to the MHC molecules and prevent dissociation of the MHC complexes.

Substance | Peptide exchange
21 (IVREFLTAL; listed as Homo sapiens) [compound 21] | +++ (≥50 = +++)
83 (ALADGVVSQA; listed as Homo sapiens) [compound 83] | +++ (≥50 = +++)
45 (MLTELEKAL; listed as Homo sapiens) [compound 45] | ++ (≥20% = ++)
8 (ALLDGGSEAYWRV; listed as Homo sapiens) [compound 8] | +++ (≥50 = +++)
87 (FLDNGPKTI; listed as Homo sapiens) [compound 87] | +++ (≥50 = +++)
51 (KLFGHLTSA; listed as Homo sapiens) [compound 51] | ++ (≥20% = ++)
44 (ATGNDRKEAAENSL; listed as Homo sapiens) [compound 44] | +++ (≥50 = +++)
37 (YTQPFSHYGQAL; listed as Homo sapiens) [compound 37] | +++ (≥50 = +++)
41 (GLESEELEPEEL; listed as Homo sapiens) [compound 41] | ++ (≥20% = ++)
72 (FLPPAQVTV; listed as Homo sapiens) [compound 72] | ++ (≥20% = ++)
58 (LILESIPVV; listed as Homo sapiens) [compound 58] | ++ (≥20% = ++)
59 (SLLDTLREV; listed as Homo sapiens) [compound 59] | +++ (≥50 = +++)
43 (KVVGKDYLL; listed as Homo sapiens) [compound 43] | + (≥10% = +)
26 (MLAEKLLQA; listed as Homo sapiens) [compound 26] | + (≥10% = +)
73 (KITEAIQYV; listed as Homo sapiens) [compound 73] | +++ (≥50 = +++)
18 (FLLDQVQLGL; listed as Homo sapiens) [compound 18] | +++ (≥50 = +++)
49 (GLMKDIVGA; listed as Homo sapiens) [compound 49] | +++ (≥50 = +++)
11 (ALWLPTDSATV; listed as Homo sapiens) [compound 11] | +++ (≥50 = +++)
16 (VLAEGGEGV; listed as Homo sapiens) [compound 16] | +++ (≥50 = +++)
78 (KVANIIAEV; listed as Homo sapiens) [compound 78] | ++ (≥20% = ++)
39 (LVRDTQSGSL; listed as Homo sapiens) [compound 39] | ++ (≥20% = ++)
42 (TQTAVITRI; listed as Homo sapiens) [compound 42] | + (≥10% = +)
65 (YVVGGFLYQRL; listed as Homo sapiens) [compound 65] | +++ (≥50 = +++)
24 (LLFAGTMTV; listed as Homo sapiens) [compound 24] | ++ (≥20% = ++)
3 (TASAITPSV; listed as Homo sapiens) [compound 3] | +++ (≥50 = +++)

Substance | Peptide exchange
30 (SLNGNQVTV; listed as Homo sapiens) [compound 30] | + (≥10% = +)
81 (AVLPHVDQV; listed as Homo sapiens) [compound 81] | +++ (≥50 = +++)
91 (KLIDDVHRL; listed as Homo sapiens) [compound 91] | ++++ (≥75% = ++++)
85 (NIIELVHQV; listed as Homo sapiens) [compound 85] | ++++ (≥75% = ++++)
23 (KLSDSATYL; listed as Homo sapiens) [compound 23] | +++ (≥50 = +++)
71 (ASDPILYRPVAV; listed as Homo sapiens) [compound 71] | +++ (≥50 = +++)
55 (GAIDLLHNV; listed as Homo sapiens) [compound 55] | ++ (≥20% = ++)
7 (SIFEGLLSGV; listed as Homo sapiens) [compound 7] | ++ (≥20% = ++)
35 (LLRFSQDNA; listed as Homo sapiens) [compound 35] | +++ (≥50 = +++)
66 (LLDEKVQSV; listed as Homo sapiens) [compound 66] | +++ (≥50 = +++)
89 (SLADSLYNL; listed as Homo sapiens) [compound 89] | ++ (≥20% = ++)
31 (VLPKLYVKL; listed as Homo sapiens) [compound 31] | ++ (≥20% = ++)
32 (YMLDIFHEV; listed as Homo sapiens) [compound 32] | ++ (≥20% = ++)
68 (PAVLQSSGLYSL; listed as Homo sapiens) [compound 68] | ++ (≥20% = ++)
10 (SLDENSDQQV; listed as Homo sapiens) [compound 10] | +++ (≥50 = +++)
22 (KLNDTYVNV; listed as Homo sapiens) [compound 22] | +++ (≥50 = +++)
52 (VAIGGVDGNVRL; listed as Homo sapiens) [compound 52] | ++ (≥20% = ++)
79 (GQDVGRYQV; listed as Homo sapiens) [compound 79] | ++ (≥20% = ++)
82 (HLLGHLEQA; listed as Homo sapiens) [compound 82] | +++ (≥50 = +++)
54 (YQDLLNVKM; listed as Homo sapiens) [compound 54] | +++ (≥50 = +++)
57 (GLAPNTPGKA; listed as Homo sapiens) [compound 57] | +++ (≥50 = +++)
60 (VVMEELLKV; listed as Homo sapiens) [compound 60] | ++ (≥20% = ++)
15 (LLANGVYAA; listed as Homo sapiens) [compound 15] | + (≥10% = +)
28 (SLDGFTIQV; listed as Homo sapiens) [compound 28] | ++ (≥20% = ++)
48 (SMHQMLDQTL; listed as Homo sapiens) [compound 48] | ++ (≥20% = ++)

Substance | Peptide exchange
27 (NLREGDQLL; listed as Homo sapiens) [compound 27] | +++ (≥50 = +++)
56 (ALVEVTEHV; listed as Homo sapiens) [compound 56] | ++ (≥20% = ++)
40 (GLAFSLYQA; listed as Homo sapiens) [compound 40] | ++ (≥20% = ++)
46 (YTAQIGADIAL; listed as Homo sapiens) [compound 46] | +++ (≥50 = +++)
67 (SMNGGVFAV; listed as Homo sapiens) [compound 67] | ++ (≥20% = ++)
38 (IAAIRGFLV; listed as Homo sapiens) [compound 38] | +++ (≥50 = +++)
76 (KVADYIPQL; listed as Homo sapiens) [compound 76] | +++ (≥50 = +++)
70 (FVLDTSESV; listed as Homo sapiens) [compound 70] | +++ (≥50 = +++)
61 (TQTTHELTI; listed as Homo sapiens) [compound 61] | +++ (≥50 = +++)
53 (VVVTGLTLV; listed as Homo sapiens) [compound 53] | ++ (≥20% = ++)
36 (FLLRFSQDNA; listed as Homo sapiens) [compound 36] | ++ (≥20% = ++)
14 (RLPNAGTQV; listed as Homo sapiens) [compound 14] | ++++ (≥75% = ++++)
17 (MISRTPEV; listed as Homo sapiens) [compound 17] | ++ (≥20% = ++)
64 (GLTDVIRDV; listed as Homo sapiens) [compound 64] | ++++ (≥75% = ++++)
84 (SLAESLDQA; listed as Homo sapiens) [compound 84] | +++ (≥50 = +++)
33 (GLDVTSLRPFDL; listed as Homo sapiens) [compound 33] | +++ (≥50 = +++)
34 (SLVSEQLEPA; listed as Homo sapiens) [compound 34] | +++ (≥50 = +++)
80 (ALQEALENA; listed as Homo sapiens) [compound 80] | ++ (≥20% = ++)
25 (LLPPPPPPA; listed as Homo sapiens) [compound 25] | +++ (≥50 = +++)
93 (VLINTSVTL; listed as Homo sapiens) [compound 93] | +++ (≥50 = +++)
13 (SLSPVILGV; listed as Homo sapiens) [compound 13] | ++++ (≥75% = ++++)
74 (ILASLATSV; listed as Homo sapiens) [compound 74] | +++ (≥50 = +++)
9 (HLIAEIHTA; listed as Homo sapiens) [compound 9] | +++ (≥50 = +++)
92 (SILRHVAEV; listed as Homo sapiens) [compound 92] | ++ (≥20% = ++)
